Test results from patent US20220289830A1 (STAIDSON BEIJING BIOPHARMACEUTICALS, published 2022).

Tests used:
[1] = molecular target: T1, recombinant Pseudomonas aeruginosa PcrV, full-length (PAO), His-tagged (Pseudomonas aeruginosa); assay: BLI
[2] = molecular target: T1, recombinant Pseudomonas aeruginosa …; assay: ELISA, PcrV coated on the plate, goat anti-human Fc-AP detection
[3] = molecular target: T2, native PcrV on live Pseudomonas aeruginosa (strains O6-57/66, O11-PA103, O1-52/66, O16-177/81) (Pseudomonas aeruginosa); assay: cell-based or functional assay
[4] = molecular target: T2, native PcrV on live Pseudomonas …; assay: cell-based or functional assay; remark: listed apart in the source
[5] = molecular target: T2, native PcrV on live Pseudomonas …; assay: cell-based or functional assay; remark: listed apart in the source
[6] = molecular target: T2, native PcrV on live Pseudomonas …; assay: cell-based or functional assay; remark: listed apart in the source
[7] = molecular target: T1, recombinant Pseudomonas aeruginosa …; assay: SPR (BIACORE)

Binder	Kd [1]	EC50 [2]	RBC lysis assay IC50 (P. aeruginosa strain 57/66(O6)) [3]	A549 cytotoxicity assay IC50 (P. aeruginosa strain PA103(O11)) [4]	A549 cell lysis Average IC50 over the strains [5]	A549 cell lysis IC50, strain O1-52/66 [5]	A549 cell lysis IC50, strain O6-57/66 [5]	A549 cell lysis IC50, strain O11-PA103 [5]	A549 cell lysis IC50, strain O16-177/81 [5]	RBC lysis Average IC50 over the three strains [6]	RBC lysis IC50, strain O1-52/66 [6]	RBC lysis IC50, strain O6-57/66 [6]	RBC lysis IC50, strain O16-177/81 [6]	Kd [7]
4A10 (antibody, V domains shown, also called optimized anti-PcrV mAb clone 4A10) VH: EVQLLESGGGLVQPGGSLRLSCTASGFTFSSYPMSWVRQAPGKGLDWVSGISESGGSTNYADSVKGRFSTSRDNSKSTLYLDMNSLRAEDTAIYYCAKGRFSDASEHFFRAVYGMDVWGQGTAVTVSS VL: DIQLTQSPSSLSASVGDRVTITCRASQGISSYLAWYQQKPGKTPKLLIYAASTLQSGVPSRFSGSGSGTDFTLTISSLQPEDFATYYCQQLSSYPLTFGGGTKVEIK	0.606 nM	0.113 µg/mL	0.16 µg/mL	2.8 µg/mL										
3A11 (antibody, V domains shown, also called optimized anti-PcrV mAb clone 3A11) VH: EVQLLESGGGLVQPGGSLRLSCTASGFTFSSYHMSWVRQAPGKGLDWVSGISESGGSTNYADSVKGRFSTSRDNSKSTLYLDMNSLRAEDTAIYYCAKGRFSQSSSHFFRAVYGMDVWGQGTAVTVSS VL: DIQLTQSPSSLSASVGDRVTITCRASQGISSYLAWYQQKPGKAPKLLIYAASTLQSGVPSRFSGSGSGTDFTLTISSLQPEDFATYYCQQLSSYPLTFGGGTKVEIK	0.126 nM	0.0952 µg/mL		0.91 µg/mL										
3B12 (antibody, V domains shown, also called optimized anti-PcrV mAb clone 3B12) VH: EVQLLESGGGLVQPGGSLRLSCTASGFTFSSNHMSWVRQAPGKGLDWVSGISESGGSTNYADSVKGRFSTSRDNSKSTLYLDMNSLRAEDTAIYYCAKGRFSDEYGHFFRAVYGMDVWGQGTAVTVSS VL: DIQLTQSPSSLSASVGDRVTITCRASQGISSYLAWYQQKPGKAPKLLIYAASTLQSGVPSRFSGSGSGTDFTLTISSLQPEDFATYYCQQLSSYPLTFGGGTKVEIK	0.167 nM	0.118 µg/mL	0.16 µg/mL	2.68 µg/mL										
6A10 (antibody, V domains shown, also called optimized anti-PcrV mAb clone 6A10) VH: EVQLLESGGGLVQPGGSLRLSCTASGFTFSDNHMSWVRQAPGKGLDWVSGISESGGSTNYADSVKGRFSTSRDNSKSTLYLDMNSLRAEDTAIYYCAKGRFSTSSSHFFRAVYGMDVWGQGTAVTVSS VL: DIQLTQSPSSLSASVGDRVTITCRASQGISSYLAWYQQKPGKAPKLLIYAASTLQSGVPSRFSGSGSGTDFTLTISSLQPEDFATYYCQQLSSYPLSFGGGTKVEIK	0.204 nM	0.104 µg/mL	0.04 µg/mL	2 µg/mL										
13-42 mAb (antibody, V domains shown) VH: EVQLLESGGGLVQPGGSLRLSCTASGFTFSDYPMSWVRQAPGKGLDWVSGISESGGSTNDADSVKGRFSTSRDNSKSTLYLDMNSLRAEDTAIYYCAKGRFCTNSSCFFRAVYGMDVWGQGTAVTVSS VL: DIQLTQSPSSLSASVGDRVTITCRASQGISSYLAWYQQKPGKAPKLLIYAASTLQSGVPSRFSGSGSGTDFTLTISSLQPEDFATYYCQQLSSYPLSFGGGTKVEIK	0.414 nM	0.132 µg/mL	0.23 µg/mL	2.67 µg/mL	1.38 µg/mL	2.34 µg/mL	0.891 µg/mL	1.21 µg/mL	1.08 µg/mL	0.355 µg/mL	0.472 µg/mL	0.13 µg/mL	0.464 µg/mL	
7B1 (antibody, V domains shown, also called 7B1-IgG1; 7B1 mAb) VH: EVQLLESGGGLVQPGGSLRLSCTASGFTFSDNYMSWVRQAPGKGLDWVSVISESGGSTNYADSVKGRFSTSRDNSKSTLYLDMNSLRAEDTAIYYCAKGRFSTLSSHFFRAVYGMDVWGQGTAVTVSS VL: DIQLTQSPSSLSASVGDRVTITCRASQGISSYLAWYQQKPGKAPKLLIYAASTLQSGVPSRFSGSGSGTDFTLTISSLQPEDFATYYCQQLSSYPLTFGGGTKVEIK	< 0.001 nM	0.125 µg/mL	0.1 µg/mL	1.06 µg/mL	2.13 µg/mL	4.56 µg/mL	0.503 µg/mL	2.61 µg/mL	0.861 µg/mL	0.214 µg/mL	0.308 µg/mL	0.138 µg/mL	0.197 µg/mL	0.0847 nM
6D10 (antibody, V domains shown, also called optimized anti-PcrV mAb clone 6D10) VH: EVQLLESGGGLVQPGGSLRLSCTASGFTFSDYPMSWVRQAPGKGLDWVSGISESGGSTNYADSVKGRFSTSRDNSKSTLYLDMNSLRAEDTAIYYCAKGRFSTDSSHFYRAVYGMDVWGQGTAVTVSS VL: DIQLTQSPSSLSASVGDRVTITCRASQGISSYLAWYQQKPGKAPKLLIYAASTLQSGVPSRFSGSGSGTDFTLTISSLQPEDFATYYCQQLSSYPLSFGGGTKVEIK			0.16 µg/mL	2.63 µg/mL										0.052 nM
